Laboratory results from publication PMC9856709 (Cancers, 2023).
“Also recorded” adds a separate entry of the source. Numbered stars: 1 amine (or outer) side, 2 acyl side, 3 side chain; on linkers, the order of the positions; unused ones are H or OH. Square brackets hold non-standard residues; d marks the D form. Peptide text beside a SMILES is read from it. * marks the point of attachment. NOTA = O=C(O)CN1CCN(CC(=O)O)CCN(CC(=O)*)CC1; γGlu = O=C(O)[C@H](CCC(=O)[*:2])N[*:1]; Sta = CC(C)C[C@H](N)[C@@H](O)CC(=O)O; AEEA = NCCOCCOCC(=O)O; Aoc = NCCCCCCCC(=O)O; CO = O=C([*:1])[*:2]

How the values were obtained:
[1] = Text: The average animal weight was 27.4 ± 1.6 g and OLINDA/EXM 1.0 software (adult male phantom) was used to estimate the absorbed doses.
The well-established “percent kg/g method” using Equation (1) was used to upscale the uptake values in mice to be able to evaluate the dosimetry in humans. The organ weights of the reference adult male were used to calculate the organ uptake in humans and the area under the curve of exponential fits for human time–activity curves was used to calculate the residence times. (%IA/organ)human = [(%IA/g)animal × (kBqTBweight)animal × (gorgan/(kBqTBweight)human](1)

[2] = 37 °C, 1 h, ITLC
Protocol: After 1 h, samples were taken from all solutions and analysed by ITLC.

PC3-pip xenografts [3] = assay: nanoScan PET/CT imaging of PC3-pip xenografted mice; type: in vivo, BALB/c nu/nu mice; conditions: 100 pmol, 8 MBq, n = 2
Protocol: Immediately after the PET scan, a CT scan was performed using a nanoScan SPECT/CT camera (Mediso Medical Imaging System Ltd., Budapest, Hungary) with the same bed. […] Imaging of the non-blocked (n = 2) and the PSMA/GRPR-blocked (n = 2) groups was performed at 1 and 3 h pi. Reconstruction of the PET/CT scans was conducted using Nucline nanoScan 3.04.014.0000 software.

PC3-pip xenografts [4] = assay: in vivo; conditions: non-blocked
Protocol: (§1) Ex vivo experiments and in vivo imaging were carried out using BALB/c nu/nu mice bearing PC3-pip xenografts. All studies were performed according to the guidelines of the Declaration of Helsinki and approved by the Ethics Committee for Animal Research in Uppsala, Sweden (5.8.18-00473/2021. Approved on 26 February 2021).
(§2) There were 4 mice in each group. At 1 and 3 h pi, mice were sacrificed after an intraperitoneal injection of a Ketalar–Rompun solution (20 μL/g body weight) consisting of Ketalar (10 mg/mL) and Rompun (1 mg/mL), followed by heart puncture.

in vivo = conditions: BALB/c nu/nu, mouse, iv, 40 pmol, total radioactivity
Protocol: as §1, §2

Wistar rats = assay: Acute and subacute toxicity in rats; type: in vivo
Protocol: The animals were kept in a barrier-type animal facility under standard housing conditions. […] The dose of heterodimer for toxicological studies was calculated based on cross-species dose conversion using body surface area scaling: the maximum dose for the clinical study was chosen to be 300 µg of heterodimer per 75 kg patient, or […], which corresponds to [(4 µg × 427 g)/1000 g] × 6 = 10.3 µg per rat. Ten rats from each group were euthanized at 24 h pi and five rats at 28 days pi. The body weight of the rats was controlled at baseline, at 24 h after administration for the acute toxicity group, and every second day for the subacute toxicity group. Biochemical blood tests on alanine aminotransferase, albumin, aspartate aminotransferase, bilirubin, glucose, creatinine, urea, the total amount of proteins, cholesterol, and ALT were performed before the euthanasia. Necropsy of the experimental rats was performed, and the weights of the brain, heart, lungs, liver, adrenal glands, kidneys, spleen, testes, and thymus were measured.

PSMA and GRPR = assay: In vitro binding specificity (blocking) in PC3-pip cells; type: cell-based, human; conditions: 1 h 37 °C
Protocol: In vitro experiments were carried out using the PSMA- and GRPR-expressing human prostate carcinoma PC3-pip cell line (obtained from Prof. Martin Pomper, The Johns Hopkins University, Baltimore, MD, USA). Cells (5–7 × 10^5 cells/vial) were seeded 24–48 h before the experiments. All experiments were performed in triplicate.
To block the targets, cells were incubated at room temperature for 15 min with an excess (750 nM/well) of PSMA-11 (to block PSMA) and/or NOTA-PEG2-RM26 (to block GRPR). […] After 1 h, cells were collected, and the radioactive content was measured using an automated gamma counter.

[5] = estimated for adult male from mouse ex vivo data, percent kg/g method, OLINDA/EXM 1.0

Compound: CC(C)C[C@H](NC(=O)C[C@H](O)[C@H](CC(C)C)NC(=O)[C@H](Cc1c[nH]cn1)NC(=O)CNC(=O)[C@@H](NC(=O)[C@H](C)NC(=O)[C@H](Cc1c[nH]c2ccccc12)NC(=O)[C@H](CCC(N)=O)NC(=O)[C@@H](Cc1ccccc1)NC(=O)COCCOCCNC(=O)[C@H](CCCCNC(=O)CN1CCN(CC(=O)O)CCN(CC(=O)O)CC1)NC(=O)[C@H](Cc1ccccc1)NC(=O)CCCCCCCNC(=O)CC[C@H](NC(=O)N[C@@H](CCC(=O)O)C(=O)O)C(=O)O)C(C)C)C(N)=O [[^68Ga]Ga-BQ7812, metal not drawn] ({Glu-CO-γGlu-Aoc}-FK(NOTA)[AEEA][dF]QWAVGH[Sta]L-NH2)
- Total dose per scan ([1]; after injection of 200–300 MBq, from estimated effective dose): 1.66–2.49 mSv
- Absorbed doses in the remaining organs and tissues (other than kidneys, heart wall, lower large intestine wall) ([1]; estimated for adult male from mouse ex vivo data): below 0.02 mSv/MBq
- Absorbed Dose, Adrenals [1, 5]: 0.0043 mGy/MBq
- Absorbed Dose, Brain [1, 5]: 0.0007 mGy/MBq
- Absorbed Dose, Breasts [1, 5]: 0.0030 mGy/MBq
- Absorbed Dose, Gallbladder wall [1, 5]: 0.0042 mGy/MBq
- Absorbed Dose, Heart wall [1, 5]: 0.0265 mGy/MBq
- Absorbed Dose, Kidneys [1, 5]: 0.0660 mGy/MBq
- Absorbed Dose, Liver [1, 5]: 0.0044 mGy/MBq
- Absorbed Dose, Lower large intestine wall [1, 5]: 0.0250 mGy/MBq
- Absorbed Dose, Lungs [1, 5]: 0.0041 mGy/MBq
- Absorbed Dose, Muscle [1, 5]: 0.0024 mGy/MBq
- Absorbed Dose, Osteogenic cells [1, 5]: 0.0080 mGy/MBq
- Absorbed Dose, Ovaries [1, 5]: 0.0045 mGy/MBq
- Absorbed Dose, Pancreas [1, 5]: 0.0186 mGy/MBq
- Absorbed Dose, Red marrow [1, 5]: 0.0057 mGy/MBq
- Absorbed Dose, Skin [1, 5]: 0.0026 mGy/MBq
- Absorbed Dose, Small intestine wall [1, 5]: 0.0199 mGy/MBq
- Absorbed Dose, Spleen [1, 5]: 0.0033 mGy/MBq
- Absorbed Dose, Stomach wall [1, 5]: 0.0048 mGy/MBq
- Absorbed Dose, Testes [1, 5]: 0.0030 mGy/MBq
- Absorbed Dose, Thymus [1, 5]: 0.0038 mGy/MBq
- Absorbed Dose, Thyroid [1, 5]: 0.0030 mGy/MBq
- Absorbed Dose, Total body [1, 5]: 0.0044 mGy/MBq
- Absorbed Dose, Upper large intestines LI wall [1, 5]: 0.0111 mGy/MBq
- Absorbed Dose, Urinary bladder wall [1, 5]: 0.0036 mGy/MBq
- Absorbed Dose, Uterus [1, 5]: 0.0042 mGy/MBq
- Effective dose [1, 5]: 0.0083 mSv/MBq
- Effective dose equivalent [1, 5]: 0.0124 mSv/MBq
- Release of free gallium-68 in human serum [2]: no release of free gallium-68 was detected
- Stability in human serum [2]: stable
- PET/CT visualisation, non-blocked (PC3-pip xenografts [3]; 1 and 3 h pi): elevated activity uptake could be visualised in the kidneys and the tumour
- PET/CT visualisation of tumour upon blocking of PSMA and GRPR (PC3-pip xenografts [3]; co-injected NOTA-PEG2-RM26 and PSMA-11 (5 nmol each)): the tumour is no longer visualised
- Activity uptake in the kidneys at 3 h pi as % of uptake at 1 h pi (PC3-pip xenografts [4]): 26%
- Activity uptake in the pancreas at 3 h pi as % of uptake at 1 h pi (PC3-pip xenografts [4]): 11%
- Activity uptake in the tumour at 3 h pi as % of uptake at 1 h pi (PC3-pip xenografts [4]): 55%
- tissue uptake at 1 h (in vivo; blood): 0.86 ± 0.16 %ID/g
- tissue uptake at 3 h (in vivo; blood): 0.16 ± 0.02 %ID/g
- tissue uptake at 1 h (in vivo; bone): 0.31 ± 0.06 %ID/g
- tissue uptake at 3 h (in vivo; bone): 0.13 ± 0.03 %ID/g
- tissue uptake at 1 h (in vivo; kidneys): 45.3 ± 16.6 %ID/g
- tissue uptake at 1 h (in vivo; liver): 0.89 ± 0.1 %ID/g
- tissue uptake at 3 h (in vivo; liver): 0.57 ± 0.03 %ID/g
- tissue uptake at 1 h (in vivo; lungs): 0.86 ± 0.15 %ID/g
- tissue uptake at 3 h (in vivo; lungs): 0.2 ± 0.05 %ID/g
- tissue uptake at 1 h (in vivo; muscle): 0.21 ± 0.04 %ID/g
- tissue uptake at 3 h (in vivo; muscle): 0.05 ± 0.01 %ID/g
- tissue uptake at 1 h (in vivo; pancreas): 5.6 ± 0.7 %ID/g
- tissue uptake at 3 h (in vivo; pancreas): 0.6 ± 0.16 %ID/g
- tissue uptake at 1 h (in vivo; remaining organs (other than tumour, kidneys, pancreas)): ≤ 1 %ID/g
- tissue uptake at 1 h (in vivo; salivary glands): 0.44 ± 0.07 %ID/g
- tissue uptake at 3 h (in vivo; salivary glands): 0.14 ± 0.03 %ID/g
- tissue uptake at 1 h (in vivo; small intestine): 1.33 ± 0.31 %ID/g
- tissue uptake at 3 h (in vivo; small intestine): 0.2 ± 0.02 %ID/g
- tissue uptake at 1 h (in vivo; spleen): 0.92 ± 0.16 %ID/g
- tissue uptake at 3 h (in vivo; spleen): 0.33 ± 0.03 %ID/g
- tissue uptake at 3 h (in vivo; tumour (PC3-pip xenograft)): 5.68 ± 0.62 %ID/g
- tissue to tissue ratio at 3 h (in vivo; tumour (PC3-pip) / bone): 47 ± 13
- tissue to tissue ratio at 3 h (in vivo; tumour (PC3-pip) / kidneys): 0.53 ± 0.07
- tissue to tissue ratio at 3 h (in vivo; tumour (PC3-pip) / liver): 9.9 ± 0.8
- tissue to tissue ratio at 3 h (in vivo; tumour (PC3-pip) / muscle): 116 ± 22
- tissue to tissue ratio at 3 h (in vivo; tumour (PC3-pip) / pancreas): 10 ± 4
- tissue to tissue ratio at 3 h (in vivo; tumour (PC3-pip) / small intestine): 28 ± 4
- tissue to tissue ratio at 3 h (in vivo; tumour (PC3-pip) / spleen): 18 ± 3
- tissue uptake at 1 h (in vivo; tumour (PC3-pip)): 10.4 ± 0.97 %ID/g
- tissue uptake at 3 h (in vivo; tumour (PC3-pip)): 5.7 ± 0.6 %ID/g
- tissue to tissue ratio at 1 h (in vivo; tumour / blood): 13 ± 3
- tissue to tissue ratio at 3 h (in vivo; tumour / blood): 35 ± 4
- tissue to tissue ratio at 1 h (in vivo; tumour / bone): 35 ± 8
- tissue to tissue ratio at 1 h (in vivo; tumour / kidneys): 0.3 ± 0.1
- tissue to tissue ratio at 1 h (in vivo; tumour / liver): 11.8 ± 1
- tissue to tissue ratio at 1 h (in vivo; tumour / lungs): 12 ± 3
- tissue to tissue ratio at 3 h (in vivo; tumour / lungs): 29 ± 5
- tissue to tissue ratio at 1 h (in vivo; tumour / muscle): 52 ± 12
- tissue to tissue ratio at 1 h (in vivo; tumour / pancreas): 1.9 ± 0.2
- tissue to tissue ratio at 1 h (in vivo; tumour / salivary glands): 24 ± 3
- tissue to tissue ratio at 3 h (in vivo; tumour / salivary glands): 40 ± 8
- tissue to tissue ratio at 1 h (in vivo; tumour / small intestine): 8 ± 2
- tissue to tissue ratio at 1 h (in vivo; tumour / spleen): 12 ± 3
- Clinical or biochemical parameters in toxicological studies (Wistar rats; single iv bolus 10.3 μg (10 MBq for labelled), 24 h and 28 days pi, vs control groups): no changes
- Toxicity conclusion (Wistar rats; single iv bolus 10.3 μg, acute (24 h) and subacute (28 days)): absence of toxicity; also recorded: safe toxicological profile
- Uptake in cells pre-saturated with both blocking agents compared to either one (PSMA and GRPR; 20 nM tracer): significantly lower
- Activity uptake after pre-saturation of GRPR compared to naive cells (PSMA and GRPR; excess NOTA-PEG2-RM26, 20 nM tracer, triplicate, p < 0.05): significant decrease
- Activity uptake after pre-saturation of PSMA compared to naive cells (PSMA and GRPR; excess PSMA-11, 20 nM tracer, triplicate, p < 0.05): significant decrease
- Activity uptake after pre-saturation of PSMA and GRPR compared to naive cells (PSMA and GRPR; excess PSMA-11 and NOTA-PEG2-RM26, 20 nM tracer, triplicate, p < 0.05): significant decrease
